This is an account of results in PMC6233201 (Scientific Reports, 2018).

The series deals with the molecule itself. The series is described as follows: SEC; gel filtration (Superdex 200 10/300 GL) of the Ni-NTA purified DEDs; self-association read from the elution position (monomer, dimer, oligomer peaks). For orientation: In gel filtration, larger molecules generally elute earlier.

B1: wild-type death effector domains (DEDs) of human caspase-8 (residues 1-188) with a C-terminal His6 tag (domain or fragment, UniProt Q14790-1 1-188, looked up)
chain: MDFSRNLYDIGEQLDSEDLASLKFLSLDYIPQRKQEPIKDALMLFQRLQEKRMLEESNLSFLKELLFRINRLDLLITYLNTRKEEMERELQTPGRAQISAYRVMLYQISEEVSRSELRSFKFLLQEEISKCKLDDDMNLLDIFIEMEKRVILGEGKLDILKRVCAQINKSLLKIINDYEEFSKERSSS
notes: tandem death effector domains (DED) of human caspase-8, residues 1-188, UniProt Q14790-1; The soluble protein was mixed with E. coli slyD after purification; also called DED^WT; wild-type DEDs; source: E. coli Rosetta (DE3) pLysS, pET-21b, purified (Ni-NTA, gel filtration); very low yields of soluble protein; not shown: His6, C-terminal, kept
B1: the binding result is “binds”.
